{
  "source": "patent US20260317448",
  "about": "(published 2026)",
  "key": {"6-hsALPI peptide": {"target": "T1, 6-hsALPI peptide (human, intestinal alkaline phosphatase aa416-438)", "T1 chain": "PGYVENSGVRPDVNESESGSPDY", "assay": "ELISA"}, "2-hsALPI peptide": {"target": "T2, 2-hsALPI peptide (human, intestinal alkaline phosphatase aa234-250)", "T2 chain": "PEYPADASQNGIRLDGK", "assay": "ELISA"}, "[1]": {"target": "T3, germ cell alkaline phosphatase (human, UniProt P10696)", "T3 chain": "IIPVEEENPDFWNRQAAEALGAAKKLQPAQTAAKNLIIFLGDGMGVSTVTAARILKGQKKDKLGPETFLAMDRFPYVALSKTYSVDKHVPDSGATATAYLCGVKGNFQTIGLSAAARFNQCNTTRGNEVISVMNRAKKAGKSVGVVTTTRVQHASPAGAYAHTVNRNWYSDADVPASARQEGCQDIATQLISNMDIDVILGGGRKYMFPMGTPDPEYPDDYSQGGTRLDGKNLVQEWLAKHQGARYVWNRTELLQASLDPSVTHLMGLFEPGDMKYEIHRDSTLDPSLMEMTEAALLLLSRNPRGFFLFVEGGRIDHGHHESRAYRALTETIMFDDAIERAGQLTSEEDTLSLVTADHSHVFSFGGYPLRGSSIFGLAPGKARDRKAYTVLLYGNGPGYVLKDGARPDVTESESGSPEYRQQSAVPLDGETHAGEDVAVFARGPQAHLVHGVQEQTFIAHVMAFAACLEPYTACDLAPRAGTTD", "assay": "other, western blot"}, "[2]": {"target": "T4, tissue-nonspecific alkaline phosphatase (human, UniProt P05186)", "T4 chain": "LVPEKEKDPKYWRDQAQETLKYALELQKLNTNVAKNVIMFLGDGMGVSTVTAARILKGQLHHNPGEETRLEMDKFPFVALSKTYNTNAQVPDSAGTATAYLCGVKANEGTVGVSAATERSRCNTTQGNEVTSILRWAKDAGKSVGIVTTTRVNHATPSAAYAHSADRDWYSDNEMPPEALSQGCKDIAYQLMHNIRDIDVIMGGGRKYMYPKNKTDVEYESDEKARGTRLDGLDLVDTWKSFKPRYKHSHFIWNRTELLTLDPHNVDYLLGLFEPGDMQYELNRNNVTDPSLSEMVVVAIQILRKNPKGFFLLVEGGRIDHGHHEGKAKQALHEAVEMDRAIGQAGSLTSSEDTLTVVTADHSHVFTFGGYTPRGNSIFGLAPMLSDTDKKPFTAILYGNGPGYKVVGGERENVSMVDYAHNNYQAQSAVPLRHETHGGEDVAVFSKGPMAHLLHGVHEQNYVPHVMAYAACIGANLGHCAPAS", "assay": "other, western blot"}, "[3]": {"target": "T5, placental alkaline phosphatase (human, UniProt P05187)", "T5 chain": "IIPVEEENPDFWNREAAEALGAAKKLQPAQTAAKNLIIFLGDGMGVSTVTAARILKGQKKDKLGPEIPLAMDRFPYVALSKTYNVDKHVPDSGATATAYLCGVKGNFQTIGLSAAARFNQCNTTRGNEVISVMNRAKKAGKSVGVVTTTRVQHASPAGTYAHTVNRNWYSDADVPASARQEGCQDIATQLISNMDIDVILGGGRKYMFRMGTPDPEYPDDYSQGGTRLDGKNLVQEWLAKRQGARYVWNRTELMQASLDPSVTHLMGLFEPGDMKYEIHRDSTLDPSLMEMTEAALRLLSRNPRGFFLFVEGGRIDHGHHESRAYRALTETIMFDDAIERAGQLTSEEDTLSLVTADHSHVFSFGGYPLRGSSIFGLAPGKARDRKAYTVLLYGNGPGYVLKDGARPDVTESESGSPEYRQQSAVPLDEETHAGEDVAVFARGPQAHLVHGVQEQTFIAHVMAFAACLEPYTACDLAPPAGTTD", "assay": "other, western blot"}},
  "data": [
    {"binder": "CDI022E3 (antibody, V domains shown) VH: CQSLEESGGRLVTPGTPLTLTCTVSGIDLSTYAMGWVRQAPGEGLEWIGTIGVSGSTYYASWAKGRFTISKTSTTVDLKMTSPATEDTATYFCARGSVWGPGTLVTVSL VL: AQVLTQTPASVEAAVGGTVTIKCQASQSISTWLAWYQQKPGQAPKRLIYSASTLASGVSSRFKGSGSGTEFTLTISDLECADAATYYCRCSYGKSYGEAFGGGTEVVVKG", "values": [
      {"measurement": "Kd", "setting": "6-hsALPI peptide", "result": 200, "unit": "pM"},
      {"measurement": "Kd", "setting": "2-hsALPI peptide", "result": 21, "unit": "pM"}
    ]},
    {"binder": "CDI005E8 (antibody, V domains shown) VH: CQSLEESGGGLVQPGASLTLTCTASGFSFTNNYWIYWVRQAPGKGLEWIGSVIISSSSAYYASWAKGRFTITKPSSTTVTLQVTSLTAADTATYFCVTGGILWGPGTLVTVSS VL: MDTRAPTQLLGLLLLWLPGARCDVVMTQTPASVEAAVGGTVTIKCQASQSIGTALAWYQQKPGQPPKRLIYKASTLTSGVPSRFKGSGSGTDFTLTISDLECADAATYYCQCTVDDSSSGSSYGNAFGGGTEVVVRG", "values": [
      {"measurement": "binding result", "setting": "[1]", "result": "no binding"},
      {"measurement": "binding result", "setting": "[2]", "result": "no binding"},
      {"measurement": "Kd", "setting": "2-hsALPI peptide", "result": 7.11, "unit": "pM"},
      {"measurement": "binding result", "setting": "[3]", "result": "no binding"}
    ]}
  ]
}
